Test results taken from patent US20170246212A1, “METHODS TO UPREGULATE AND SUPPRESS AN EXPRESSION OF IMMUNOMODULATORY CELLS” (National Health Research Institutes, priority 2014, published 2017).

B1: rhIL-25: Human recombinant IL-25 (PeproTech); IL-25 also known as IL17E (protein, UniProt Q9H293 33-177, looked up)
Interleukin-25: YSHWPSCCPSKGQDTSEELLRWSTVPVPPLEPARPNRHPESCRASEDGPLNSRAISPWRYELDRDLNRLPQDLYHARCLCPHCVSLQTGSHMDPRGNSELLYHNQTVFYRRPCHGEKGTHKGYCLERRLYRVSLACVCVRPRVMG

Experiments:
[1] = tested on: PD-L1 surface expression on monocytes; test: PD-L1 surface expression on human monocytes from PBLs, flow cytometry; assay type: cell-based; conditions: for IL-25-mediated induction of PD-L1 in human primary monocytes: inhibitor pretreatment (WP1066 2.5 μM; SP600125 25 μM; PD98059 20 μM; LY294002 10 μM; Akt inhibitor III 10 μM), then 100 ng/ml rhIL-25 for 18 hours
Description: FIG. 9. IL-25-mediated PD-L1 expression in human monocytes and hMSCs is mediated through JNK and STAT3 with STAT3 involved in transcriptional control of PD-L1. (A) Human PBLs were pretreated with inhibitors of STAT3 (WP1066; 2.5 μM), JNK (SP600125; 25 μM), or MEK1 (PD98059; 20 μM) prior to 100 ng/ml rhIL-25 for 18 hours, with subsequent flow cytometric analysis for PD-L1 surface expression on monocytes, gated using FSC and SSC. Filled histograms represent isotype control. Unfilled histograms represent PD-L1 antibody staining. Pooled data (3 donors) provided in (B) with bars representing MFI. hMSCs were treated with inhibitors of (C) STAT3 (WP1066; 2.5 μM) and (D) JNK (SP600125; 25 μM) for 6 hours, and subsequently assessed by flow cytometric analysis for PD-L1 surface expression. Pooled data (all 3 donors) for each respective inhibitor provided (left charts) with bars representing MFI. (D) Putative GAS elements (STAT-binding sites) in the proximal promoter region of human PD-L1 gene; 700 bp region upstream from the transcription start site), as determined with TFSearch web-based software. (E) Binding of STAT3 or IgG (negative control) in hMSCs was analyzed by chromatin immunoprecipitation (ChIP) with promoter-specific primers for region 1 and region 2. The input samples (positive control) represent 1% starting chromatin. (F) Schematic of model of hMSC-mediated suppression of Th17 responses involving IL-25/STAT3/PD-L1 axis.
FIG. 10. Involvement of signal pathways for IL-25-induced expression of PD-L1 in human peripheral blood monocytes. (A) Pooled data (3 donors) of PD-L1 expression (shown as MFI) after MEK inhibition. (B) Human peripheral blood monocytes were pretreated with inhibitors of PI3K (LY294002; 10 μM) or Akt (Akt inhibitor III; 10 μM), followed by 100 ng/ml IL-25 stimulation. After IL-25 treatment for 18 hours, the expression of PD-L1 was assessed by cell surface staining. Pooled data (3 donors) provided in (C) of PD-L1 expression (shown as MFI). A.U., arbitrary units. […]

[2] = tested on: PD-L1 surface expression on hMSCs; test: PD-L1 surface expression on hMSCs, flow cytometry; assay type: cell-based, human
Description: FIG. 7. IL-25 induces PD-L1 surface expression on hMSCs and human monocytes. (A) PD-L1 in siCtrl MSCs (left panel) and siPD-L1 MSCs (right panel) was analyzed by surface staining. (B) Freshly isolated human PBLs were co-cultured without (left panels) or with siCtrl MSCs (middle panels) or siPD-L1 MSCs (right panels) for 3 days, followed by PMA/ionomycin stimulation for 6 hours. IL-17A production in CD3^+ T cells was assessed by intracellular staining. Representative data shown with numbers in the top right quadrants representing the percentages of IL-17A-producing CD3^+ T cells. Pooled data from PBLs (n=4) and 2 hMSC donors (donors A & B) are provided in (C). Folds of reversed phenotypes of silL-25 and siPD-L1 are provided in (D). (E) PD-L1 expression on siCtrl hMSCs (left panel) and silL-25 hMSCs (right panel) was assessed by cell surface staining Filled histograms represent isotype control. […] Pooled data provided in (F) of PD-L1 expression (indicated by fold-change in mean fluorescence intensity; MFI) on silL-25-hMSCs and siPD-L1-hMSCs (all 3 donors). […] (G) hMSCs were treated with indicated doses of rhIL-25 for 18 hours and assessed for cell surface PD-L1 expression by cell surface staining. […] (H) Human PBLs were treated with indicated doses of rhIL-25 for 18 hours, and assessed for cell surface PD-L1 expression on monocytes, gated using FSC and SSC, by flow cytometric analysis. […]

[3] = tested on: IL-17A production in CD3+ T cells; test: IL-17A production in CD4 T cells treated with rhIL-25, intracellular staining; assay type: cell-based, human; conditions: rhIL-25 alone for 18 hours, then PMA/ionomycin 6 hours
Description: FIG. 6. […] (A) Human CD4 T cells were treated with indicated doses of recombinant human IL-25 (rhIL-25) for 18 hours, followed by PMA/ionomycin stimulation for 6 hours. IL-17A production in CD3^+ T cells was assessed by intracellular staining. Numbers in the top right quadrants represent the percentages of IL-17A-producing CD3^+ T cells; (B) pooled data of 5 PBL donors. (C) Human CD4 T cells (n=4) were co-cultured without or with hMSCs (2 donors: B & C) in the absence or presence of transwell barriers. Pooled data from healthy donors are provided in (D). Data are shown as means±SD. **, p<0.01; n.s., not significant. […]
Cells were stained with antibodies as indicated: anti-human IL-25-PE (R&D Systems), mouse IgG1 isotype control-PE (R&D Systems), anti-human CD3-PE/Cy5 (BioLegend), anti-human CD4-PE (BioLegend), anti-human IL-17A-PE (eBioscience), anti-human IFN-γ-FITC (BioLegend), anti-human IL-22-PE (eBioscience), anti-human FOXP3-Alexa Fluor 488 (BD Pharmingen), anti-human CD274 […]-PE (eBioscience), mouse IgG1 isotype control-PE (eBioscience), anti-human IL-25R-PE (R&D Systems), and mouse IgG2b isotype control-PE (R&D Systems), anti-mouse CD4-APC (eBioscience), anti-mouse CD3e-PE/Cy5 (eBioscience), and anti-mouse/rat IL-17A-PE (eBioscience). Data was collected on BD FACSCalibur™ (BD Biosciences) instruments and analyzed with Cell Quest Pro software (BD Biosciences).

[4] = tested on: myeloid-derived suppressor cells (MDSCs) in peripheral blood leukocytes; test: Expansion of CD14-CD11b+CD33+ MDSCs from human PBLs by IL-25; assay type: cell-based; conditions: allogeneic PBL (2 donors), various doses of IL-25
Description: FIG. 11. IL-25 expands […] myeloid-derived suppressor cells (MDSCs) in peripheral blood leukocytes (PBLs). Expansion of CD14^−CD11b^+CD33^+ cells from human PBLs by recombinant human IL-25. Allogeneic PBL (2 donors) were cultured alone or with addition of various doses of IL-25 as indicated. PBL were first gated on forward scatter (FSC)/side scatter (SSC) (R1) then analyzed for CD14^− and CD11b^+ (R2), and further analyzed for CD33^+ (R3, cell percentages denoted).
To further confirm that IL-25 can induce expansion of MDSCs from peripheral blood, Allogeneic PBL (2 donors) were cultured alone or with addition of various doses of IL-25 as indicated (FIG. 11). The treated cells were first gated on forward scatter (FSC)/side scatter (SSC) (R1) then analyzed for CD14^− and CD11b^+ (R2), and further analyzed for CD33^+ (R3, cell percentages denoted).

Molecule | IL-25-mediated induction of PD-L1 in human primary monocytes [1] | PD-L1 expression in hMSCs ([2]; inhibitor for 6 hours (WP1066 2.5 μM; SP600125 25 μM)) | PD-L1 expression in monocytes ([1]; human PBLs treated with rhIL-25, indicated doses, 18 hours, dose-dependent) | surface expression of PD-L1 on hMSCs ([2]; exogenous rhIL-25, indicated doses, 18 hours) | suppression of Th17 responses (IL-17A in CD4 T cells) [3] | expansion of MDSCs in PBLs [4]
COc1cccc(-c2cc(=O)c3ccccc3o2)c1N [PD98059] | minimal effect | – | – | – | – | –
C[C@H](NC(=O)/C(C#N)=C/c1cccc(Br)n1)c1ccccc1 [WP1066, reference compound] | substantially abolished | strongly reduced | – | – | – | –
B1 | – | – | dramatically and significantly increased | further upregulate surface expression of PD-L1 on hMSCs but not to a significant extent | failed to suppress Th17 responses to a significant extent | expands
